Data on three compounds can be found in patent US20250228951A1, “NOVEL-PEPTIDE-BASED ANTICANCER IMMUNOTHERAPEUTIC AGENT” (TWINPIG BIOLAB INC., priority 2022, published 2025).

As usually defined, the Kd is a measure of binding affinity in units of concentration. Read a high Kd as lower affinity. Usually koff stands for the rate constant with which the complex falls apart. Low readings indicate a long-lived complex, high ones a short-lived complex. Broadly, the kon is the second-order rate constant of association. Low values mean slow association, high ones fast association.

Assay [1] concerns the target ITGB2 protein immobilised on the SPR sensor chip (UniProt P05107).
Assay [2] concerns M2 macrophages. Nature of the assay: Flow cytometry of FITC-conjugated melittin on THP-1-derived M0, M1 and M2 macrophages. It counts as cell-based, human. To be noted: 50 nM FITC-conjugated melittin, 1 hour; M2 macrophages compared to the other macrophage types. The procedure:
To confirm whether the melittin fabricated in Example 1 specifically bound to M2 tumor-associated macrophages (M2 TAMs), a human monocyte cell line THP-1 was differentiated into M0, M1, and M2 macrophages, and treated with FITC-conjugated melittin, and then confirmed by flow cytometry. Specifically, THP-1 cells were treated with 100 nM phorbol 12-myristate 13-acetate (PMA) at 37° C. for 24 hours (M0 macrophages), and the differentiated M0 macrophages were incubated with 100 nM LPS and 20 ng/ml IFN-γ at 37° C. for 72 hours to be differentiated into M1 macrophages (M1), and incubated with 20 ng/ml IL-4 and IL-13 at 37° C. for 72 hours to be differentiated into M2 macrophages (M2). The differentiated cells were treated with 50 nM FITC-conjugated melittin for 1 hour, detected with BD FACS CantoII instruments (BD biosciences, San Jose, CA, USA), and analyzed with FlowJo software (BD biosciences).

In assay [3] the test system is M2 macrophages. Nature of the assay: CCK-8 cell viability in M2 macrophages. It counts as cell-based, human. The note with it: Melittin-dKLA 1 μM, control M2 macrophages. How it is done: To confirm whether Melittin-dKLA bound to ITGB2 to induce apoptosis in M2 macrophages, Melittin-dKLA (1 μM) was treated for 24 hours to M2 macrophages in which ITGB2 expression was suppressed by Crispr/cas9 fabricated in Example 7-1 above, and cell viability was analyzed using a CCK-8 assay. Specifically, Melittin-dKLA (1 μM) reacted with ITGB2 knockdown macrophages fabricated in Example 7-1 above for 1 hour. After the reaction, the medium was replaced and cultured at 37° C. for 24 hours. To determine cell viability, a CCK-8 reagent (Enzo Life Sciences) was added in 1/10 of the medium and reacted at 37° C. for 3 hours. Absorbance was measured at 450 nm using a microplate reader (Molecular Devices).
To confirm whether TB511 (TAMpep826-dKLA) induced apoptosis through ITGB2 in M2 macrophages, TB511 reacted with M2 macrophages in which ITGB2 expression was suppressed by Crispr/cas9 fabricated in Example 7-1.

The subject of assay [4] is M2 macrophages in which ITGB2 expression was suppressed by Crispr/cas9. Description: CCK-8 cell viability in M2 macrophages with ITGB2 expression suppressed by Crispr/cas9. The note with it: Melittin-dKLA 1 μM, ITGB2 knocked down M2 macrophages. It counts as cell-based, human. The procedure:
As a cell model used to confirm whether apoptosis was induced through ITGB2 in M2 macrophages, a cell model in which the expression of ITGB2 was suppressed in M2 macrophages was fabricated using Crispr/cas9. Specifically, cells differentiated into M2 macrophages were cultured in an Opti-MEM medium. The Crispr/cas9 was mixed with Cas9 protein V2 (Thermo Fisher scientific) and gRNA (Genscript; ITGB2; Table 7) of a CRISPRMAX™ Reagent kit (Thermo Fisher scientific) and a Cas9 Plus™ Reagent (Thermo Fisher scientific), and a CRISPRMAX™ Reagent was diluted in the Opti-MEM medium, mixed together, and reacted for 5 to 10 minutes, and then added to cells differentiated into M2 macrophages and cultured at 37° C. for 2 to 3 days. Thereafter, the mRNA expression level of ITGB2 was confirmed.
To confirm whether Melittin-dKLA bound to ITGB2 to induce apoptosis in M2 macrophages, Melittin-dKLA (1 μM) was treated for 24 hours to M2 macrophages in which ITGB2 expression was suppressed by Crispr/cas9 fabricated in Example 7-1 above, and cell viability was analyzed using a CCK-8 assay. Specifically, Melittin-dKLA (1 μM) reacted with ITGB2 knockdown macrophages fabricated in Example 7-1 above for 1 hour. After the reaction, the medium was replaced and cultured at 37° C. for 24 hours. […] Absorbance was measured at 450 nm using a microplate reader (Molecular Devices). […]

ITGB2 protein immobilised on the SPR sensor chip, sequence (P05107 23-700 limits assumed): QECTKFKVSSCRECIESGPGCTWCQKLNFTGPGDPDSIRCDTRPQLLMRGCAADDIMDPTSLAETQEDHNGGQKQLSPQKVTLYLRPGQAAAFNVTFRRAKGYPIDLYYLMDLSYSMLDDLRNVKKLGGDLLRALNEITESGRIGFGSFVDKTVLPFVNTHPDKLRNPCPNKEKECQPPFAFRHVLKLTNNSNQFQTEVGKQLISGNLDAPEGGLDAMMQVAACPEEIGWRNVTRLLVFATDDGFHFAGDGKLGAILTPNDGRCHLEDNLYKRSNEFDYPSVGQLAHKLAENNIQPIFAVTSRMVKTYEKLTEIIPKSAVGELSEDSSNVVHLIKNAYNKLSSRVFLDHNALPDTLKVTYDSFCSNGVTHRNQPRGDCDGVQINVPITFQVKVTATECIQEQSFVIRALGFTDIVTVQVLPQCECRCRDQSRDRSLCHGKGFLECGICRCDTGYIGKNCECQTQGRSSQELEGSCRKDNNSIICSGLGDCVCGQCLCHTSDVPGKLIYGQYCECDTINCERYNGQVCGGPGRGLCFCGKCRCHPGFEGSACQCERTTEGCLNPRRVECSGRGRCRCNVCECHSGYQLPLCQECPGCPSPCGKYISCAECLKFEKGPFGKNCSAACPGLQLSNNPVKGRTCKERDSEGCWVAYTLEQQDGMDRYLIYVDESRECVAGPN

As for Melittin-dKLA (peptide), in assay [1], the Ka is 1.27e+07 M⁻¹, the Kd came to 78.6 nM, the koff was determined as 0.00381 s⁻¹ and the kon came out at 48500 M⁻¹ s⁻¹.
On to `CC[C@H](C)[C@H](NC(=O)CN)C(=O)NCC(=O)N[C@@H](C)C(=O)N[C@H](C(=O)N[C@@H](CC(C)C)C(=O)N[C@@H](CCCCN)C(=O)N[C@H](C(=O)N[C@@H](CC(C)C)C(=O)N[C@H](C(=O)N[C@H](C(=O)NCC(=O)N[C@@H](CC(C)C)C(=O)N1CCC[C@H]1C(=O)N[C@@H](C)C(=O)N[C@@H](CC(C)C)C(=O)N[C@H](C(=O)N[C@@H](CO)C(=O)N[C@@H](Cc1c[nH]c2ccccc12)C(=O)N[C@H](C(=O)N[C@@H](CCCCN)C(=O)N[C@@H](CCCNC(=N)N)C(=O)N[C@@H](CCCCN)C(=O)N[C@@H](CCCNC(=N)N)C(=O)N[C@@H](CCC(N)=O)C(=O)N[C@@H](CCC(N)=O)C(N)=O)[C@@H](C)CC)[C@@H](C)CC)[C@@H](C)O)[C@@H](C)O)C(C)C)C(C)C` [Melittin], for which the FITC-positive cells entry with M2 macrophages [2] was “significantly increased”.
As for “GIGAVLKVLTTGLPALISWIKRKRQQ-GGGGS-d[KLAKLAKKLAKLAK] (SEQ ID NO: 5), peptide with linker and drug dKLA attached to melittin [Melittin-dKLA]”, the cell viability result in the assay on M2 macrophages [3] is on record as “significantly reduced”; in assay [4], “the decrease in cell viability by Melittin-dKLA was suppressed”.
